Laboratory results published in paper PMC8906423.
Values joined by “and” are separate entries in the source; they are usually repeats but may differ in a detail not shown here. Equal values may be shown once.

Assays:
[1] = biological target: Δ123A7-S chimera (H77c E2 Δ123 with 7 Cys-to-Ala mutations fused to the N terminus of DHBV S antigen) (hepatitis C virus genotype 1a, H77c | duck hepatitis B virus) (UniProt P27958); assay: co-sedimentation + other: quantitative Western blot; gradient-purified VLP preparations; amount and proportion of E2 and S within VLPs quantified with Image Studio software; 4 consecutive preps
[2] = biological target: RBDA7-S chimera (H77c E2 RBD with 7 Cys-to-Ala mutations fused to the N terminus of DHBV S antigen) (hepatitis C virus genotype 1a, H77c | duck hepatitis B virus) (UniProt P27958); assay: as above

## duck hepatitis B virus (DHBV) small surface antigen (S) (natural protein)
[1]
  stoichiometry N (mol S per mol Δ123A7-S): 2 and 4
[2]
  stoichiometry N (mol S per mol RBDA7-S): 4 and 10 and 7
